These results are taken from paper PMC2646509.

This series deals with T1, PrfA L140F L140F (Listeria monocytogenes (NF-L1166)) (UniProt P22262).
T1 sequence: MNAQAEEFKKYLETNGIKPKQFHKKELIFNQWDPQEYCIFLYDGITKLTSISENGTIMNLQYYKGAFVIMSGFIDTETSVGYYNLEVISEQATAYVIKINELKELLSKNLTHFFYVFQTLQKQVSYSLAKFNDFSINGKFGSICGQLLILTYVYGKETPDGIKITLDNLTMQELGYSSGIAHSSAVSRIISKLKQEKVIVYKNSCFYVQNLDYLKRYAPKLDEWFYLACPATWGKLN
Briefly: EMSA. Background: In EMSA bound probe runs differently from free probe, usually more slowly.

For “GATGCTTCTAAAAAAGTTGCTGAAGCTTGGGAAGCAGTTGGGGTTAACTGATTAACAAATGTTAGAGAAAAATTAATTCTCCAAGTGATATTCTTAAAATAATTCATGAATA (double strand) [actA promoter]”, the binding entry is “binds”.
